Source: patent US8192946B2, “Assays for detecting pregnancy-associated glycoproteins” (The Curators of The University of Missouri, priority 2008, dated 2012)
Square brackets hold non-standard residues; d marks the D form. Peptide text beside a SMILES is read from it. * marks the point of attachment. Sta = CC(C)C[C@H](N)[C@@H](O)CC(=O)O; Isovaleryl = CC(C)CC(=O)*

How the values were obtained:
Format in all cases: biochemical
[1] = test system: native bovine PAG (preparation 7-10); experiment: inhibition of native PAG peptidase activity by pepstatin A; conditions: parallel samples in pH 3.5, 4 and 4.5 buffers; FIG. 1
Text: FIG. 1. pH profile of the activity of native bovine PAG (preparation 7-10) against a fluorescent peptidase substrate. The PAG was isolated by pepstatin affinity chromatography and further purified by anion exchange chromatography. Identical amounts of the 7-10 preparation were mixed with a fluorescent peptidase substrate in the presence of buffers adjusted to different pH levels. The extent of fluorescent product release is indicated on the y-axis and the pH conditions of each reaction are indicated on the x-axis. Parallel samples in the pH 3.5, 4 and 4.5 buffers were treated with pepstatin A, an inhibitor of aspartic peptidases, to determine if any observed activity was from aspartic peptidases.
In each of the examples shown in FIGS. 1-3, native bovine PAGs were bound to pepstatin-agarose matrix at pH 7 or 7.5, washed and eluted by increasing osmolarity (up to 1 M NaCl), including detergent (1% Triton X-100) and increasing the pH of the elution buffer. Different PAGs bind with differing affinities to the aspartic peptidase inhibitor, pepstatin A, and it is possible to isolate different members of the family by systematically altering binding and elution conditions (e.g. Green et al., 2005; Wooding et al., 2005). The differences in activity and pH optima for each of these preparations are illustrated in FIGS. 1-3. […]

[2] = test system: cathepsin D/E FRET substrate; experiment: anti-FLAG immuno-trap protease assay of recombinant candidate bovine PAGs at pH 3-7
Procedure: FIGS. 6A and 6B. Relative protease activity, as measured by fluorescence, from an immuno-trap protease assay of several recombinant PAGs isolated with an anti-FLAG monoclonal antibody. The reactions were performed under several pH conditions simultaneously (pH 2.5 to 7.0). Identical concentrations of each recombinant PAG lysate were added to the wells.
Table 5 and FIGS. 6A and 6B show results of protease activity (fluorescence) from immuno-trap assays of several additional recombinant bovine PAGs that were expressed as fusion proteins with a FLAG epitope tag. The PAGs were immobilized in the wells of an ELISA plate by using anti-FLAG in an immuno-protease assay format (as described above) and were analyzed for their proteolytic activity against the cathepsin D/E FRET substrate at pH increments ranging from 3-7. […] This protein was used as a negative control in the assay to establish the baseline for background fluorescence.

[3] = test system: fluorescent cathepsin D/E substrate; experiment: proteolytic activity of purified recombinant PAGs as a function of pH; conditions: 20 μM substrate; for pH of maximal activity: buffers of varying pH with 100 mM NaCl, FIGS. 5A, 5B
Text: FIGS. 5A and 5B. The activity of purified recombinant bovine PAG-2 and -12 (FIG. 5A), and porcine PAG-2 (FIG. 5B), against a fluorescent cathepsin D substrate as a function of pH. In FIG. 5A, triangles represent boPAG-2 activity, which is at a maximum at pH 4, while squares represent boPAG-12 activity. In both panels (A and B), each activity point is normalized by the maximum activity (relative fluorescence units) of each peptidase at its optimal pH. The percent activity is shown on the Y-axis and the pH of respective buffers on the X-axis. The error bars represent standard deviation in results obtained from duplicate reads from two separate experiments.
Recombinant boPAG-2 and -12 and recombinant porcine PAG-2 (poPAG-2) were tested for proteolytic activity by incubation with 20 μM fluorescent cathepsin D/E substrate (Peptides International, as above) in buffers of varying pH containing 100 mM NaCl. Raw fluorescence data was transformed to % relative activity, with the highest value set at 100%. Maximal activity for boPAG-2 was at pH 4, while maximal activity for boPAG-12 and poPAG-2 was at pH 3.5 (FIGS. 5A and 5B).

## CC(C)CC(=O)N[C@H](C(=O)N[C@H](C(=O)N[C@@H](CC(C)C)[C@@H](O)CC(=O)N[C@@H](C)C(=O)N[C@@H](CC(C)C)[C@@H](O)CC(=O)O)C(C)C)C(C)C [pepstatin A] (Isovaleryl-VV[Sta]A[Sta]-OH)
[1]
  inhibition of peptidase activity: inhibited

B1: tsh (control): recombinant equine-TSH-beta expressed and purified in the same manner as the PAGs, negative control (protein)
chain: FCIPTEYMMHVERKECAYCLTINTTICAGYCMTRDINGKLFLPKYALSQDVCTYRDFMYKTVEIPGCPDHVTPYFSYPVAVSCKCGKCNTDYSDCIHEAIKANYCTKPQKSYVVEFSI
[2]; anti-FLAG immuno-trap, pH 3-7, compared with TSH-beta control
  proteolytic activity: does not have proteolytic activity
[2]; pH 3.0, immobilized with anti-FLAG
  Relative fluorescent product release, pH 3.0: 38349
[2]; pH 4.0, immobilized with anti-FLAG
  Relative fluorescent product release, pH 4.0: 33908
[2]; pH 5.0, immobilized with anti-FLAG
  Relative fluorescent product release, pH 5.0: 34996.5
[2]; pH 6.0, immobilized with anti-FLAG
  Relative fluorescent product release, pH 6.0: 28222.5
[2]; pH 7.0, immobilized with anti-FLAG
  Relative fluorescent product release, pH 7.0: 26590.5

B2: poPAG-2: recombinant porcine PAG-2, FLAG-tagged (protein)
chain: DYKDDDDKLVMIPLTKVKSVRESLREKGLLKNFLKEHPYNMIQNLLSKNSSHVQKFSYQPLRNYLDMVYVGNISIGTPPQQFSVVFDTGSSDLWVPSIYCKSKACVTHRSFNPSHSSTFHDRGKSIKLEYGSGKMSGFLGQDTVRIGQLTSTGQAFGLSKEETGKAFEHAIFDGILGLAYPSIAIKGTTTVIDNLKKQDQISEPVFAFYLSSDKEEGSVVMFGGVDKKYYKGDLKWVPLTQTSYWQIALDRITCRGRVIGCPRGCQAIVDTGTSMLHGPSKAVAKIHSLIKHFEKEYVVPCNARKALPDIVFTINNVDYPVPAQAYIRKYVVPCNARKALPDIVFTINNVDYPVPAQAYIRKNANNNRCYSTFEDIMDTLNQREIWILGDVFLRLYFTVYDEGQNRIGLAQAT
[3]
  pH of maximal activity: 3.5
[3]; pH 2.5, 100 mM NaCl
  activity at pH 2.5: showed activity

B3: boPAG-2: recombinant bovine PAG 2 expressed in a baculovirus expression system as FLAG-tagged fusion protein (protein)
chain: DYKDDDDKIVILPLKKMKTLRETLREKNLLNNFLEEQAYRLSKNDSKITIHPLRNYLDTAYVGNITIGTPPQEFRVVFDTGSANLWVPCITCTSPACYTHKTFNPQNSSSFREVGSPITIFYGSGIIQGFLGSDTVRIGNLVSPEQSFGLSLEEYGFDSLPFDGILGLAFPAMGIEDTIPIFDNLWSHGAFSEPVFAFYLNTNKPEGSVVMFGGVDHRYYKGELNWIPVSQTSHWQISMNNISMNGTVTACSCGCEALLDTGTSMIYGPTKLVTNIHKLMNARLENSEYVVSCDAVKTLPPVIFNINGIDYPLRPQAYIIKIQNSCRSVFQGGTENSSLNTWILGDIFLRQYFSVFDRKNRRIGLAPAV
[3]
  pH of maximal activity: 4
